Results published in patent publication US20190056395.

T1: MSP-MS library tetradecapeptide KWLIHPTFSYnRWP
T1 chain: KWLIHPTFSYNRWP


Molecular target: T1, MSP-MS library tetradecapeptide …

Protein	kcat/Km (mass spectrometry-based cleavage time course)
recombinant mature Sap5 (secreted aspartyl protease 5) from Candida albicans, expressed in Pichia pastoris (protein) GPVAVTLHNEAITYTADITVGSDNQKLNVIVDTGSSDLWIPDSNVICIPKWRGDKGDFCKSAGSYSPASSRTSQNLNTRFDIKYGDGSYAKGKLYKDTVGIGGVSVRDQLFANVWSTSARKGILGIGFQSGEATEFDYDNLPISLRNQGIIGKAAYSLYLNSAEASTGQIIFGGIDKAKYSGSLVDLPITSEKKLTVGLRSVNVRGRNVDANTNVLLDSGTTISYFTRSIVRNILYAIGAQMKFDSAGNKVYVADCKTSGTIDFQFGNNLKISVPVSEFLFQTYYTSGKPFPKCEVRIRESEDNILGDNFLRSAYVVYNLDDKKISMAPVKYTSESDIVAIN	4.4×10^4 M^-1 s^-1 (Sap5)
recombinant mature Sap6 (secreted aspartyl protease 6) from Candida albicans, expressed in Pichia pastoris (protein) GPVAVKLDNEIITYSADITVGSNNQKLSVIVDTGSSDLWIPDSKAICIPKWRGDCGDFCKNNGSYSPAASSTSKNLNTRFEIKYADGSYAKGNLYQDTVGIGGASVKNQLFANVWSTSAHKGILGIGFQTNEATRTPYDNLPISLKKQGIIAKNAYSLFLNSPEASSGQIIFGGIDKAKYSGSLVELPITSDRTLSVGLRSVNVMGRNVNVNAGVLLDSGTTISYFTPSIARSIIYALGGQVHFDSAGNKAYVADCKTSGTVDFQFDKNLKISVPASEFLYQLYYTNGKPYPKCEIRVRESEDNILGDNFMRSAYIVYDLDDKKISMAQVKYTSESNIVAIN	2.0×10^5 M^-1 s^-1 (Sap6)
